Data taken from US20230265179A1 (TWIST BIOSCIENCE, published 2023).

T1: CD40L (UniProt P29965 1-261, limits assumed)
T1 construct: whole, on cells; also called cytokine over-expressing Expi293 cells (CD40L)
T1 sequence (looked up): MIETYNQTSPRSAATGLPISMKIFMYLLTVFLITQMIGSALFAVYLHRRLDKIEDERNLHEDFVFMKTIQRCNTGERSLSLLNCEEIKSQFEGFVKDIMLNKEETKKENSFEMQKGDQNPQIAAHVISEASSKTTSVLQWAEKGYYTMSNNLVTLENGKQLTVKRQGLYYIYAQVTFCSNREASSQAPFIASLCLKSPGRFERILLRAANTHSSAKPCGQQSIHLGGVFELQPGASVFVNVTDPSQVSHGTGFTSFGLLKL


Biological target: T1, CD40L
Test: flow cytometry, 100 nM IgG, CD40L over-expressing Expi293 cells over parent Expi293 cells
Method: All incubations and washes were in buffer containing PBS+1% BSA. MFI Ratio is defined by the mean fluorescence intensity (MFI) of the cytokine over-expressing Expi293 cell over the Expi293 parent cell. […] EC50 was calculated in GraphPad Prism.

Row | 100 nM FACS (MFI Ratio) | Binder
1 | 12.1 MFI ratio | CD40L-211 (antibody, V domains shown) VH: EVQLLESGGGLVQPGGSLRLSCAASGGYNFRDYMHWVRQAPGKGLEWVAEIRNKANNHATKYADSVKGRFTISRDNSKNTLYLQMNSLRAEDTAVYYCAKNLGQGFDYWGQGTLVTVSS VL: DIQMTQSPSSLSASVGDRVTITCRASQTIGDYLNWYQQKPGKAPKLLIYETSKLASGVPSRFSGSGSGTDFTLTISSLQPEDFATYYCQQSYSTPTFGQGTKVEIK
2 | 2.2 MFI ratio | CD40L-210 (antibody, V domains shown) VH: EVQLLESGGGLVQPGGSLRLSCAASGGYNFRDYMHWVRQAPGKGLEWVATISGGGINTYYPDSVKGRFTISRDNSKNTLYLQMNSLRAEDTAVYYCAKDLGQGFDYWGQGTLVTVSS VL: DIQMTQSPSSLSASVGDRVTITCSGDKLGDKYTSWYQQKPGKVPKLLIYQNDKRPSGVPSRFSGSGSGTDFTLTISSLQPEDFATYYCQQNNNWPTTFGQGTKVEIK
3 | 4.3 MFI ratio | CD40L-220 (antibody, V domains shown) VH: EVQLLESGGGLVQPGGSLRLSCAASGGYNFRDYMHWVRQAPGKGLEWVSSITSEGGSTYYADSVKGRFTISRDNSKNTLYLQMNSLRAEDTAVYYCAKDLGQGFDYWGQGTLVTVSS VL: DIQMTQSPSSLSASVGDRVTITCRTSQDIGNYLNWYQQKPGKAPKLLIYGTSYRYSGVPSRFSGSGSGTDFTLTISSLQPEDFATYYCQPSFVFPYTFGQGTKVEIK
4 | 6.6 MFI ratio | CD40L-205 (antibody, V domains shown) VH: EVQLLESGGGLVQPGGSLRLSCAASGFDFSDYEMSWVRQAPGKGLEWVSSITSEGGSTYYADSVKGRFTISRDNSKNTLYLQMNSLRAEDTAVYYCAKPDVLFDYWGQGTLVTVSS VL: DIQMTQSPSSLSASVGDRVTITCSGDNLGDKYVHWYQQKPGKAPKLLIYGKNIRPSGVPSRFSGSGSGTDFTLTISSLQPEDFANYYCQQTYSIPYTFGQGTKVEIK
5 | 22.4 MFI ratio | CD40L-216 (antibody, V domains shown) VH: EVQLLESGGGLVQPGGSLRLSCAASGFDFSDYEMSWVRQAPGKGLEWVSSITSEGGSTYYADSVKGRFTISRDNSKNTLYLQMNSLRAEDTAVYYCAKPDQFFDYWGQGTLVTVSS VL: DIQMTQSPSSLSASVGDRVTITCRASQPIAYFLSWYQQKPGKAPKLLIYENNNRPSGVPSRFSGSGSGTDFTLTISSLQPEDFATYYCQPSFLYPYTFGQGTKVEIK
6 | 1.6 MFI ratio | CD40L-208 (antibody, V domains shown) VH: EVQLLESGGGLVQPGGSLRLSCAASGFTFASYEMTWVRQAPGKGLEWVSSITSEGGSTYYADSVKGRFTISRDNSKNTLYLQMNSLRAEDTAVYYCAKPDKDFDYWGQGTLVTVSS VL: DIQMTQSPSSLSASVGDRVTITCRASQTIGDYLNWYQQKPGKAPKLLIYLGSELQSGVPSRFSGSGSGTDFTLTINSLQPEDFATYYCQTWDTGESGVFGQGTKVEIK
7 | 1.8 MFI ratio | CD40L-233 (antibody, V domains shown) VH: EVQLLESGGGLVQPGGSLRLSCAASGFTFEDYQMGWVRQAPGKGLEWVSSITSEGGSTYYADSVKGRFTISRDNSKNTLYLQMNSLRAEDTAVYYCAKPDKDFDYWGQGTLVTVSS VL: DIQMTQSPSSLSASVGDRVTITCRASQFIGRYFNWYQQKPGKAPKLLIYGATILADGVPSRFSGSGSGTDFTLTISSLQPEDFATYYCQQNNNWPTTFGQGTKVEIK
8 | 7.7 MFI ratio | CD40L-217 (antibody, V domains shown) VH: EVQLLESGGGLVQPGGSLRLSCAASGFTFASYEMTWVRQAPGKGLEWVSSITSEGGSTYYADSVKGRFTISRDNSKNTLYLQMNSLRAEDTAVYYCAKPDKIFDYWGQGTLVTVSS VL: DIQMTQSPSSLSASVGDRVTITCKASENVDTYVSWYQQKPGKAPKLLIYDDIDRPSGVPSRFSGSGSGTDFTLTISSLQPEDFATYYCQQSYSSPRTFGQGTKVEIK
9 | 5.1 MFI ratio | CD40L-218 (antibody, V domains shown) VH: EVQLLESGGGLVQPGGSLRLSCAASGFDFSDYEMSWVRQAPGKGLEWVSSITSEGGSTYYADSVKGRFTISRDNSKNTLYLQMNSLRAEDTAVYYCAKPDVLFDYWGQGTLVTVSS VL: DIQMTQSPSSLSASVGDRVTITCRTSQSLSSYLHWYQQKPGKAPKLLIYQNDKRPSGVPSRFSGSGSGTDFTLTISSLQPEDFATYYCKQSYDLFTFGQGTKVEIK
10 | 35.8 MFI ratio | CD40L-343 (antibody, V domains shown) VH: EVQLLESGGGLVQPGGSLRLSCAASGFTFSKYAMNWVRQAPGKGLEWVSAISGSGESTYYADSVKGRFTISRDNSKNTLYLQMNSLRAEDTAVYYCARAHDYDSMLMDYWGQGTLVTVSS VL: DIQMTQSPSSLSASVGDRVTITCRASQYINNYLNWYQQKPGKAPKLLIYASSTLQRGVPSRFSGSGSGTDFTLTISSLQPEDFATYYCQQSFSTPITFGQGTKVEIK
11 | 27.1 MFI ratio | CD40L-330 (antibody, V domains shown) VH: EVQLLESGGGLVQPGGSLRLSCAASGFTFSKYAMNWVRQAPGKGLEWVSAISGSGESTYYADSVKGRFTISRDNSKNTLYLQMNSLRAEDTAVYYCARAHDYDSMLMDYWGQGTLVTVSS VL: DIQMTQSPSSLSASVGDRVTITCRASQTIGSYLNWYQQKPGKAPKLLIYSASTLQTGVPSRFSGSGSGTDFTLTISSLQPEDFATYYCQQSYSPPLTFGGGTKVEIK

The next lines start with the binder.

Row | Binder | 100 nM FACS (MFI Ratio)
12 | CD40L-250 (antibody, V domains shown) VH: EVQLLESGGGLVQPGGSLRLSCAASGFIFQWYDMGWVRQAPGKGLEWVSSIDWRGLLTYYADSVKGRFTISRDNSKNTLYLQMNSLRAEDTAVYYCAKAYYGGFDYWGQGTLVTVSS VL: not shown | 27.1 MFI ratio
13 | CD40L-241 (antibody, V domains shown) VH: EVQLLESGGGLVQPGGSLRLSCAASGGYNFRDYMHWVRQAPGKGLEWVSSISDHGFNTYYADSVKGRFTISRDNSKNTLYLQMNSLRAEDTAVYYCAKNLGQGFDYWGQGTLVTVSS VL: DIQMTQSPSSLSASVGDRVTITCRTSQDISNYLNWYQQKPGKAPKLLIYAASNVESGVPSRFSGSGSGTDFTLTISSLQPEDFATYYCASRNGWNHVVFGQGTKVEIK | 1.7 MFI ratio
14 | CD40L-266 (antibody, V domains shown) VH: EVQLLESGGGLVQPGGSLRLSCAASGGYNFRDYMHWVRQAPGKGLEWVGKINYAGNTDYNDSVKGRFTISRDNSKNTLYLQMNSLRAEDTAVYYCAKNLGQGFDYWGQGTLVTVSS VL: DIQMTQSPSSLSASVGDRVTITCRASQNIRSYLNWYQQKPGKAPKLLIYSASVLQSGVPSRFSGSGSGTDFTLTISSLQPEDFATYYCKSRAYSGNLVEFGQGTKVEIK | 1.7 MFI ratio
15 | CD40L-219 (antibody, V domains shown) VH: EVQLLESGGGLVQPGGSLRLSCAASGFDFSDYEMSWVRQAPGKGLEWVSSITSEGGSTYYADSVKGRFTISRDNSKNTLYLQMNSLRAEDTAVYYCAKPDQFFDYWGQGTLVTVSS VL: DIQMTQSPSSLSASVGDRVTITCRASQSISNNLNWYQQKPGKAPKLLIYGTSYRYSGVPSRFSGSGSGTDFTLTISSLQPEDFATYYCQQTYDTPLTFGQGTKVEIK | 2.1 MFI ratio
16 | CD40L-214 (antibody, V domains shown) VH: EVQLLESGGGLVQPGGSLRLSCAASGFTFEDTEMDWVRQAPGKGLEWVSSITSEGGSTYYADSVKGRFTISRDNSKNTLYLQMNSLRAEDTAVYYCAKPDVLFDYWGQGTLVTVSS VL: DIQMTQSPSSLSASVGDRVTITCSGDNLRGYYASWYQQKPGKAPKLLIYGENSRPSGVPSRFSGSGSGTDFTLTISSLQPEDFATYYCQQSYENPLTFGQGTKVEIK | 7.3 MFI ratio
17 | CD40L-207 (antibody, V domains shown) VH: EVQLLESGGGLVQPGGSLRLSCAASGFTFEDTEMDWVRQAPGKGLEWVSSITSEGGSTYYADSVKGRFTISRDNSKNTLYLQMNSLRAEDTAVYYCAKPDKDFDYWGQGTLVTVSS VL: DIQMTQSPSSLSASVGDRVTITCRASQRISSFLNWYQQKPGKAPKLLIYDASNLQSGVPSRFSGSGSGTDFTLTISSLQPEDFATYYCQPSFYFPYAFGQGTKVEIK | 11.9 MFI ratio
18 | CD40L-319 (antibody, V domains shown) VH: EVQLLESGGGLVQPGGSLRLSCAASGFTFGHYAMGWVRQAPGKGLEWVSAISGSGAGTYYADSVKGRFTISRDNSKNTLYLQMNSLRAEDTAVYYCATHDSPYYYIDVWGQGTLVTVSS VL: DIQMTQSPSSLSASVGDRVTITCRASQSIYTYLNWYQQKPGKAPKLLIYTASALQTGVPSRFSGSGSGTDFTLTISSLQPEDFATYYCQQSYRIPLTFGGGTKVEIK | 4.2 MFI ratio
19 | CD40L-321 (antibody, V domains shown) VH: EVQLLESGGGLVQPGGSLRLSCAASGFSFRSYAMSWVRQAPGKGLEWVSIISGSGGSTSYADSVKGRFTISRDNSKNTLYLQMNSLRAEDTAVYYCARYYFGLSSNWFNPWGQGTLVTVSS VL: DIQMTQSPSSLSAYVGDRVTITCRASQSIGIHLNWYQQKPGKAPKLLIYGASRLQTGVPSRFSGSGSGTDFTLTISSLQPEDFATYYCQQSYSAPLTFGGGTKVEIK | 1.7 MFI ratio
20 | CD40L-239 (antibody, V domains shown) VH: EVQLLESGGGLVQPGGSLRLSCAASGFIFQWYDMGWVRQAPGKGLEWVSSINDRGDQTYYADSVKGRFTISRDNSKNTLYLQMNSLRAEDTAVYYCARVAFSGSFDYWGQGTLVTVSS VL: DIQMTQSPSSLSASVGDRVTITCRASQSILSYLNWYQQKPGKAPKLLIYFTSTLAAGVPSRFSGSGSGTDFTLTISSLQPEDFATYYCQQSYSSAPTFGQGTKVEIK | 4.2 MFI ratio
21 | CD40L-342 (antibody, V domains shown) VH: EVQLLESGGGLVQPGGSLRLSCAASGFTFSKYAMNWVRQAPGKGLEWVSAISGSGESTYYADSVKGRFTISRDNSKNTLYLQMNSLRAEDTAVYYCARAHDYDSMLMDYWGQGTLVTVSS VL: DIQMTQSPSSLSASVGDRVTITCRASQSISRYLNWYQQKPGKAPKLLIYAESTLQSGVPSRFSGSGSGTDFTLTISSLQPEDFATYYCQQSYTIPLTFGQGTKVEIK | 124 MFI ratio
